Laboratory results published in patent publication US20250041416A1 (Innovent, published 2025).
Residue numbers refer to the chain shown, from its start. Names and notes keep the numbering of the source.

B1: ADI-38484 (IgG as tested in Table 2) (antibody, V domains shown)
VH: QVQLVQSGAEVKKPGSSVKVSCKASGGTFSNDVISWVRQAPGQGLEWMGVIIPIFGIANYAQKFQGRVTITADESTSTAYMELSSLRSEDTAVYYCARGRGYYSSWLHDIWGQGTMVTVSS
VL: DIQMTQSPSSLSASVGDRVTITCQASQDITNYLNWYQQKPGKAPKLLIYDASNLETGVPSRFSGSGSGTDFTFTISSLQPEDIATYYCQQAFDLITFGGGTKVEIK
B2: ADI-38484 Fab (Fab, V domains shown)
VH: B1 VH
VL: B1 VL
B3: ADI-34857 (antibody, V domains shown)
VH: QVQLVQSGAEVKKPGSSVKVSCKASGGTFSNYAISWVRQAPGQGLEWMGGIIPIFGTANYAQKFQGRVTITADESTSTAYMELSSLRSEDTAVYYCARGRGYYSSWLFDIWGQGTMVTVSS
VL: B1 VL
notes: also called BCMA parent antibody ADI-34857
B4: ADI-38497 Fab (Fab, V domains shown)
VH: QLQLQESGPGLVKPSETLSLTCTVSGGSIVSSSYYWTWIRQPPGKGLEWIGSISIAGSTYYNPSLKSRVTISVDTSKNQFSLKLSSVTAADTAVYYCARDRGDQILDVWSQGTMVTVSS
VL: DIQMTQSPSSLSASVGDRVTITCRASQSISRYLNWYQQKPGKAPKLLIYAASSLQSGVPSRFSGSGSGTDFTLTISSLQPEDFATYYCQQKYFDITFGGGTKVEIK
B5: ADI-34861 (antibody, V domains shown)
VH: B4 VH with V30S, T37G, I55Y, A56S, Q104T, S110G
VL: B4 VL
notes: also called BCMA parent antibody ADI-34861
B6: ADI-38497 (IgG as tested in Table 2) (antibody, V domains shown)
VH: B4 VH
VL: B4 VL
B7: anti-P329G mutation-specific single chain antibody-rabbit Fc fusion protein (Fc fusion)
chain: EVQLVESGGGLVQPGGSLRLSCAASGFTFSRYWMNWVRQAPGKGLEWVGEITPDSSTINYAPSLKGRFTISRDNAKNSLYLQMNSLRAEDTAVYYCARPYDYGAWFASWGQGTLVTVSSGGGGSGGGGSGGGGSGGGGSQAVVTQEPSLTVSPGGTVTLTCRSSTGAVTTSNYANWVQEKPDHLFTGLIGGTNKRAPGTPARFSGSLLGGKAALTLSGAQPEDEAEYYCALWYSNHWVFGGGTKLTVLGGGGSSKPTCPPPELLGGPSVFIFPPKPKDTLMISRTPEVTCVVVDVSQDDPEVQFTWYINNEQVRTARPPLREQQFNSTIRVVSTLPIAHQDWLRGKEFKCKVHNKALPAPIEKTISKARGQPLEPKVYTMGPPREELSSRSVSLTCMINGFYPSDISVEWEKNGKAEDNYKTTPAVLDSDGSYFLYSKLSVPTSEWQRGDVFTCSVMHEALHNHYTQKSISRSPGK
notes: scFv of the P329G CAR extracellular domain fused to rabbit Fc; also called anti-PG scFv fusion protein; anti-PG scFv

Assays:
[1] = molecular target: T1, Human BCMA on cells (human, UniProt Q02223 1-184); experiment: cell binding on H929 cells (human BCMA)
T1 construct: whole, on cells; also called hBCMA-CHO GS; Human BCMA CHO-S
T1 sequence (looked up): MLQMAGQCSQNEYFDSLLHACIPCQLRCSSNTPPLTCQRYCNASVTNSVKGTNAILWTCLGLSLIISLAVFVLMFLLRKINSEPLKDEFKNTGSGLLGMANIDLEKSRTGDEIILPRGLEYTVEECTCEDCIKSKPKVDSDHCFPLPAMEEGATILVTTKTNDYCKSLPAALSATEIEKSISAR

[2] = molecular target: T1, Human BCMA on cells; experiment: cell binding on human BCMA CHO-S cells
[3] = molecular target: T2, Human BCMA-IHM (human, UniProt Q02223 1-54, limits assumed); experiment: Biacore (SPR), Fab, human BCMA-IHM, monovalent
T2 construct: any tag or fusion partner is unknown
T2 sequence (looked up): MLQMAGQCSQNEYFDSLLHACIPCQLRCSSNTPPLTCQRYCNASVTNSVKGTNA

[4] = molecular target: Cynomolgus monkey BCMA-Fc (cynomolgus monkey, UniProt A0A2K5UD97 1-53); experiment: ForteBio (BLI), IgG, cynomolgus monkey BCMA-Fc, avid
Sequence of Cynomolgus monkey BCMA-Fc (A0A2K5UD97 entry or part of it): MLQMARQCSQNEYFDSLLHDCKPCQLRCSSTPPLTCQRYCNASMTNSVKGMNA

[5] = molecular target: T2, Human BCMA-IHM; experiment: ForteBio (BLI), IgG, human BCMA-IHM, monovalent
[6] = molecular target: T3, ADI-38497 WT antibody; experiment: SPR (Biacore T200), avidity format: ADI-38497 WT IgG captured on anti-Fab IgG on an HLC chip, anti-PG scFv fusion protein in the mobile phase
T3 construct: also called WT BCMA antibody
Experimental: The assay procedure was performed using a 10-fold dilution of 10×HBS-EP+(BR-1006-69, Cytiva) as the experimental buffer. […] A gradient dilution of anti-PG scFv (concentration gradient of 1.25 nM-40 nM, 2-fold dilution) was flowed over the chip surface from low to high concentration in a flow rate of 30 μl/min, with an association time of 180 s and a dissociation time of 300 s. Finally, the chip was regenerated with 10 mM glycine-HCl, pH 1.5 (BR-1003-54, Cytiva).
The data results were analyzed by Biacore T200 analysis software (version 3.1) using a 1:1 binding model.

Binder | Cell Binding, FON (Fold Over Negative) [1] [fold] | Cell Binding, FOB (Fold Over Background) [2] [fold] | further results
B1 | 35 | 11 | –
B2 | – | – | Kd [3]: 0.0132 nM
B3 | 5 | 2 | Kd [4]: 5.93 nM; Kd [5]: 27.7 nM
B4 | – | – | Kd [3]: 0.104 nM
B5 | 6 | 4 | –
B6 | 26 | 8 | –
B7 | – | – | binding result [6]: no binding
